Source: publication PMC4396695, “Structure of the Ribosomal Oxygenase OGFOD1 Provides Insights into the Regio- and Stereoselectivity of Prolyl Hydroxylases” (Structure(London, England:1993), 2015)

Biological target: the molecule itself
Assay: native gel or EMSA; non-denaturing PAGE of OGFOD1 and of Tpa1p, each run alone; conditions not given

B1: Tpa1p (termination and polyadenylation protein 1) (enzyme, S. cerevisiae, UniProt P40032 1-644, looked up)
chain: MKRKTAEVKGEKERNSKQISLEEDKIKGMFNPKIWDKTFQDGLKKEIEDSQPYNWGTIHELVNDDLLRAVRKEIETEIHFTKKETDIYRVNQSGDLANLSGLDWDDLSRLPNLFKLRQILYSKQYRDFFGYVTKAGKLSGSKTDMSINTYTKGCHLLTHDDVIGSRRISFILYLPDPDRKWKSHYGGGLRLFPSILPNVPHSDPSAKLVPQFNQIAFFKVLPGFSFHDVEEVKVDKHRLSIQGWYHIPQVGEEGYIPGEEEAWVRNNTSTLAQIESNVLEDFEFPKDERNILSFHEVKHFEKMLKGDAGAKTDNTPKESMTSVISDSVKLSEAEFTYLSQYISPEHLSSKGIEKLQKQFVENSSLQIESFLNDDKSELLKKVIKQKELEQECPYHSKDVKAPWKTAIPPHKARYLYIDGKEYRNFQTEADILEALNNNDLPNFQFTKDAIKIISDASGNSRENNFDAELALIDLAVFHKSTIFKKYLALLTSLCPVSEQILIRRFRPGMDFTLATKCRFNELLKSNPDIIDAVLEGTLCLTPSAGWESGELGGYELYMMDDDEDNKQYLKEDVEDASVYRADDSGDSVLINDPPAWNTFNLVLRDESVLEFVKYVSWSAKSSRWDVKMKWDVKSCDEDGQEDEA
notes: Tpa1p, Saccharomyces cerevisiae, full length, 644 aa, 74 kDa; plasmid pNIC28_Tpa1p; source: E. coli BL21(DE3), purified (HisTrap, Superdex 200, MonoQ)
stoichiometry N: 2
